Here are results for 1 molecule from publication PMC4619145 (Virology, 2015).

Assay [1] deals with T1, DENV-2 envelope glycoprotein E domain III (DIII), wild type, displayed on M13 phage (Dengue virus 2, Jamaica/1409/1983).
T1 chain: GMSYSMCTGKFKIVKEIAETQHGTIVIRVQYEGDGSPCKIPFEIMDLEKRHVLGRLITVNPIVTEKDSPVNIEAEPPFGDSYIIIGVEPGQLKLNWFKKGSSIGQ
Description: ELISA.

Assay [2] addresses T2, DENV-3 envelope glycoprotein E domain III (DIII), wild type, displayed on M13 phage (Dengue virus 3, Thailand/PaH881/1988).
T2 chain: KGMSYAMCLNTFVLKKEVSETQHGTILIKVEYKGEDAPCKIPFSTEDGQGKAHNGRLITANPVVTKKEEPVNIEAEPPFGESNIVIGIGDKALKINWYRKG
Briefly: ELISA.

B1: monoclonal antibody 4E11 (IgG) (antibody, V domains shown)
VH: VKLLEQSGAELVKPGASVRLSCTASGFNIKDTYMSWVKQRPEQGLEWIGRIDPANGDTKYDPKFQGKATITADTSSNTAYLHLSSLTSGDTAVYYCSRGWEGFAYWGQGTLVTVSA
VL: ELVMTQTPASLAVSLGQRATISCRASENVDRYGNSFMHWYQQKAGQPPKLLIYRASNLESGIPARFSGSGSRTDFTLTINPVEADDVATYFCQRSNEVPWTFGGGTKLEIK
Take B1: the binding result in assay [1] and in assay [2] was “binds” in each case.
